In US20210388081A1 (Memorial Sloan Kettering, published 2021):

Experiments:
[1] = target: anti-FcRL5/CD3 bispecific antibody generated using the ET200-104 scFv; assay: ELISA, ET200-104 coated at 1 µg/ml on a Nunc Maxisorp plate; for some dilutions of the secondary Ab
[2] = target: anti-FcRL5/CD3 bispecific antibody generated using the ET200-117 scFv; assay: ELISA, ET200-117 coated at 1 µg/ml on a Nunc Maxisorp plate; for some dilutions of the secondary Ab
SLAMF9 protein = SLAMF9 protein (UniProt Q96A28 19-236, limits assumed); assay: phage clone on SLAMF9 protein
Chain of SLAMF9 protein (Q96A28 19-236 limits assumed): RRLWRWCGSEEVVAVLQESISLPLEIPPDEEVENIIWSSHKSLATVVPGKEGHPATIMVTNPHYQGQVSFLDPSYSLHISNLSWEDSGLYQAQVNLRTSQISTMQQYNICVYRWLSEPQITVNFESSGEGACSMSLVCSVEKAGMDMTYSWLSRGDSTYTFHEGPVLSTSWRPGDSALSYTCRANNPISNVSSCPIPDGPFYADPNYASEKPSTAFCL

[3] = target: T1, FcRL1, overexpressed on 3T3 cells (UniProt Q96LA6 17-429, limits assumed); assay: phage clone on 3T3-FcRL1 cells
T1 construct: whole, on cells
T1 sequence (looked up): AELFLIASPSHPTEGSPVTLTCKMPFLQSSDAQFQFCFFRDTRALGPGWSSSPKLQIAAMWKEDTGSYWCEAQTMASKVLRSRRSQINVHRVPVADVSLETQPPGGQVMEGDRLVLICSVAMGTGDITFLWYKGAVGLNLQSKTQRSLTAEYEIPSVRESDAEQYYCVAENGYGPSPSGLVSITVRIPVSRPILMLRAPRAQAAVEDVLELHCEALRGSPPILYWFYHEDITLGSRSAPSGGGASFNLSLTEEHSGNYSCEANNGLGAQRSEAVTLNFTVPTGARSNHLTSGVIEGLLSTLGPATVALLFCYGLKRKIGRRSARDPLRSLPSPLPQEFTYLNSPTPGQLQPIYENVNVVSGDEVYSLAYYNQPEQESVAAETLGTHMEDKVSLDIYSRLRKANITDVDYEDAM

[4] = target: T2, FcRL2, overexpressed on 3T3 cells (UniProt Q96LA5 20-508, limits assumed); assay: phage clone on 3T3-FcRL2 cells
T2 construct: whole, on cells
T2 sequence (looked up): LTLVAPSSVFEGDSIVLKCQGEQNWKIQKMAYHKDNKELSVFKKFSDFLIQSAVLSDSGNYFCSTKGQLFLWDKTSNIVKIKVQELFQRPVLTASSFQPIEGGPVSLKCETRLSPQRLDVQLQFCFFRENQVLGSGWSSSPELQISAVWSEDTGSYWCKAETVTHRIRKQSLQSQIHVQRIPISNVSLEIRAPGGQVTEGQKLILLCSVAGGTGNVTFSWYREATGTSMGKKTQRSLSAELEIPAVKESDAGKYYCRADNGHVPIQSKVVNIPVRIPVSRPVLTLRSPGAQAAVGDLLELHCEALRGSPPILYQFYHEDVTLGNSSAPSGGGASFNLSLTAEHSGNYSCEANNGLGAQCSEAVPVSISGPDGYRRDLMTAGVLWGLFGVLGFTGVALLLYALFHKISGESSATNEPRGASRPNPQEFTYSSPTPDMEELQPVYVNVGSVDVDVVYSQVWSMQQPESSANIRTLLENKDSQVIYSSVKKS

[5] = target: T3, FcRL3, overexpressed on 3T3 cells (UniProt Q96P31 18-734, limits assumed); assay: phage clone on 3T3-FcRL3 cells
T3 construct: whole, on cells
T3 sequence (looked up): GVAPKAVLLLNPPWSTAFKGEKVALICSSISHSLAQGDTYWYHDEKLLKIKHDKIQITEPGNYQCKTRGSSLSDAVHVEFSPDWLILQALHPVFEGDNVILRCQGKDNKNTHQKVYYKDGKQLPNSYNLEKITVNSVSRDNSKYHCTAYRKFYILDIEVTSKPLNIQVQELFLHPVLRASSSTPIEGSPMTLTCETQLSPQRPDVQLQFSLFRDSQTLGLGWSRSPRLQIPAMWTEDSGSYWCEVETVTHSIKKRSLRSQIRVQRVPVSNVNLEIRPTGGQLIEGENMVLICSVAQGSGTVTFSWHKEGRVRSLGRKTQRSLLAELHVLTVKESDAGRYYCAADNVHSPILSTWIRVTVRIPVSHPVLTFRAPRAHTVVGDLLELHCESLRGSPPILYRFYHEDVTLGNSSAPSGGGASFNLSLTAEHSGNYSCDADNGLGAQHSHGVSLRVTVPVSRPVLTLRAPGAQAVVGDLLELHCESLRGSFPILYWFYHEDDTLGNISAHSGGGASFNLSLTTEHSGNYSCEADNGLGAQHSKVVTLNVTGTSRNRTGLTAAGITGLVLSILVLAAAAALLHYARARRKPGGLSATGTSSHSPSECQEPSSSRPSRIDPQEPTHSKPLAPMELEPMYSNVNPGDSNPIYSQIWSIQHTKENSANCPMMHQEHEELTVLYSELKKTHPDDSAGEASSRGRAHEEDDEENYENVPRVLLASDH

[6] = target: T4, FcRL4, overexpressed on 3T3 cells (UniProt Q96PJ5 20-515, limits assumed); assay: phage clone on 3T3-FcRL4 cells
T4 construct: whole, on cells
T4 sequence (looked up): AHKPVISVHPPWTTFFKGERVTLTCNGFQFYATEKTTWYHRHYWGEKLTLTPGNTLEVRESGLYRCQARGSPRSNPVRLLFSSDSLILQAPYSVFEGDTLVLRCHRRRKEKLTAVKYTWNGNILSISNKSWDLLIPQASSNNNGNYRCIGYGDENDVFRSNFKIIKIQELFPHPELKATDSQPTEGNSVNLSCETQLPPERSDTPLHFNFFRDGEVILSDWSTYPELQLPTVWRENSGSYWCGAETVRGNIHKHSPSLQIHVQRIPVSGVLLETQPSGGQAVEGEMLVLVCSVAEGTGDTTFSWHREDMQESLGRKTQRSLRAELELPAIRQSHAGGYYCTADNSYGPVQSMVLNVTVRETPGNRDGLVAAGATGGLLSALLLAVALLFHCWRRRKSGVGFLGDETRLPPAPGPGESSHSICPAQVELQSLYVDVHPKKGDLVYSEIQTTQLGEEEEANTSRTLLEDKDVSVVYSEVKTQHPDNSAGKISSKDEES

[7] = target: T5, FcRL6, overexpressed on 3T3 cells (UniProt Q6DN72 20-434, limits assumed); assay: phage clone on 3T3-FcRL6 cells
T5 construct: whole, on cells
T5 sequence (looked up): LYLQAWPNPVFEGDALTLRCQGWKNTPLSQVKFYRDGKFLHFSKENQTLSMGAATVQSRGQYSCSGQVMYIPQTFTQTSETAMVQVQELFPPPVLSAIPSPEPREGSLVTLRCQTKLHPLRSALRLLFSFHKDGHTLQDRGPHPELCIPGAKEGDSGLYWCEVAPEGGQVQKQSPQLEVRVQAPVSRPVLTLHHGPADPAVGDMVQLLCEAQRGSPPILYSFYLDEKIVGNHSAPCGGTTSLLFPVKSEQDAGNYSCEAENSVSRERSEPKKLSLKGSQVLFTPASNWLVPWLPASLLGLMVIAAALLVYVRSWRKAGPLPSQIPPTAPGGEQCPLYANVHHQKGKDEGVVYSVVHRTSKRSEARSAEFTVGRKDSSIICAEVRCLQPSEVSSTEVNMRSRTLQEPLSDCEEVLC

Chain of anti-FcRL5/CD3 bispecific antibody generated using the ET200-117 scFv (scFv, as listed by the source limits assumed, form in doubt): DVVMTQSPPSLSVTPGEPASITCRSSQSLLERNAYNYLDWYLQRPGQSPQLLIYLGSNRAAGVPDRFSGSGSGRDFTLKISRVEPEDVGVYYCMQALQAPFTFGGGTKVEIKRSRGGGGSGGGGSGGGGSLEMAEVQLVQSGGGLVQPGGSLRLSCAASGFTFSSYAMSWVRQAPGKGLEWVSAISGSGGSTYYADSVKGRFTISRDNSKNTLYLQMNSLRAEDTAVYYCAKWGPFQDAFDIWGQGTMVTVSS

With “Goat Anti-Human Ig-HRP (Southern Biotech; #2010/05) (antibody)” the OD [1] was over 1 OD and the OD [2] was over 1 OD.

B1: ET200-024 (scFv)
scFv: NFMLTQPHSVSESPGKTVTISCTGSSGSIASNYVQWYQQRPGSAPTTVIYEDNQRPSGVPDRFSGSIDSSSNSASLTISGLKTEDEADYYCQSYDSSNLWVFGGGTKLTVLGSRGGGGSGGGGSGGGGSLEMAQMQLVQSGAEVKKPGSSVKVSCKASGGTFSSYAISWVRQAPGQGLEWMGGIIPIFGTANYAQKFQGRVTITADESTSTAYMELSSLRSEDTAVYYCARYNYYYYDSWGQGTLVTVSSTSGQAGQHHHHHHGAYPYDVPDYAS
notes: screened as phage clone; entry is VL-linker-VH-His tag-HA tag
B1: no binding (SLAMF9 protein); no binding [3]; no binding [4]. B1: no binding [5]; no binding [6]; no binding [7].

B2: ET200-037 (scFv)
scFv: SYVLTQPPSVSVAPGKTARITCGGNNIGSKSVHWYQQKPGQAPVLVIYYDSDRPSGIPERFSGSNSGNTATLTISRVEAGDEADYYCQVWDSSSDHPYVFGTGTKVTVLGSRGGGGSGGGGSGGGGSLEMAQMQLVQSGAEVKKPGASVKVSCKASGYTFTSYGISWVRQAPGQGLEWMGWISAYNGNTNYAQKLQGRVTMTTDTSTSTAYMELRSLRSDDTAVYYCARSMFGAHDSWGQGTLVTVSSTSGQAGQHHHHHHGAYPYDVPDYAS
notes: as for B1
B2: no binding (SLAMF9 protein); no binding [3]; no binding [4]. B2: no binding [5]; no binding [6]; no binding [7].
